Columns and labels:
[1] = target: T1, full-length human HACE1 (HECT domain and Ankyrin repeat containing E3 Ubiquitin Protein Ligase 1), wild type, aa 1-909 (human), Q8IYU2; experiment: SEC; gel filtration of purified full-length HACE1 (Superdex; 20 mM HEPES pH 8.0, 150 mM NaCl, 5% glycerol, 1 mM DTT); settings: remark: other sources report otherwise
T1 chain: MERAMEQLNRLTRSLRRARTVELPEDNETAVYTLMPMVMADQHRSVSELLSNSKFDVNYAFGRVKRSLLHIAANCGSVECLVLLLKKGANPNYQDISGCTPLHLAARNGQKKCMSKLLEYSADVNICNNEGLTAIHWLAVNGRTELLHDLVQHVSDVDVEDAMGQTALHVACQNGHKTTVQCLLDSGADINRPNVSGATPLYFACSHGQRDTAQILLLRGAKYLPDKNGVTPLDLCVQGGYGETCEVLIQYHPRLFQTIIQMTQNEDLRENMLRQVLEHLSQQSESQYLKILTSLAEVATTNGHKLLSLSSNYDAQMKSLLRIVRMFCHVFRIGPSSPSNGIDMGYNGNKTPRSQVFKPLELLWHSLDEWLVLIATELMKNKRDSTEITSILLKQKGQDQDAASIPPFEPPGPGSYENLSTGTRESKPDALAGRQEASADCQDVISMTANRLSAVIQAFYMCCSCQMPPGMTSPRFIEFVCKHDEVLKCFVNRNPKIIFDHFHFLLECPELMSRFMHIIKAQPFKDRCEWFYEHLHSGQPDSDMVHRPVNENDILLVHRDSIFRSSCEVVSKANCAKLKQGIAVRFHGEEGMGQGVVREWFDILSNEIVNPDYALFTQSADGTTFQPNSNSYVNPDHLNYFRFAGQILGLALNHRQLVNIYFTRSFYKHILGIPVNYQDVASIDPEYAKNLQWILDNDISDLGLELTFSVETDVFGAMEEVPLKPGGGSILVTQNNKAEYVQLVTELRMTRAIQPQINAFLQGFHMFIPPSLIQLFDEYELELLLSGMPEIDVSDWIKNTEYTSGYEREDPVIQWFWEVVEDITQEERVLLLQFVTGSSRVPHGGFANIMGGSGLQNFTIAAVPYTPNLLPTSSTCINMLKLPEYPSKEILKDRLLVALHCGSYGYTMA

[2] = target: T1, full-length human HACE1 (HECT domain …); experiment: AUC; sedimentation velocity, 40 000 rpm, 20 °C, continuous c(s) distribution model; settings: remark: other sources report otherwise

- stoichiometry N [1]: 2
- percent of molecules as dimer or higher oligomers [2]: 79%
B1: full-length human HACE1 (HECT domain and Ankyrin repeat containing E3 Ubiquitin Protein Ligase 1), wild type, aa 1-909, Q8IYU2 1-909 (enzyme)
chain: MERAMEQLNRLTRSLRRARTVELPEDNETAVYTLMPMVMADQHRSVSELLSNSKFDVNYAFGRVKRSLLHIAANCGSVECLVLLLKKGANPNYQDISGCTPLHLAARNGQKKCMSKLLEYSADVNICNNEGLTAIHWLAVNGRTELLHDLVQHVSDVDVEDAMGQTALHVACQNGHKTTVQCLLDSGADINRPNVSGATPLYFACSHGQRDTAQILLLRGAKYLPDKNGVTPLDLCVQGGYGETCEVLIQYHPRLFQTIIQMTQNEDLRENMLRQVLEHLSQQSESQYLKILTSLAEVATTNGHKLLSLSSNYDAQMKSLLRIVRMFCHVFRIGPSSPSNGIDMGYNGNKTPRSQVFKPLELLWHSLDEWLVLIATELMKNKRDSTEITSILLKQKGQDQDAASIPPFEPPGPGSYENLSTGTRESKPDALAGRQEASADCQDVISMTANRLSAVIQAFYMCCSCQMPPGMTSPRFIEFVCKHDEVLKCFVNRNPKIIFDHFHFLLECPELMSRFMHIIKAQPFKDRCEWFYEHLHSGQPDSDMVHRPVNENDILLVHRDSIFRSSCEVVSKANCAKLKQGIAVRFHGEEGMGQGVVREWFDILSNEIVNPDYALFTQSADGTTFQPNSNSYVNPDHLNYFRFAGQILGLALNHRQLVNIYFTRSFYKHILGIPVNYQDVASIDPEYAKNLQWILDNDISDLGLELTFSVETDVFGAMEEVPLKPGGGSILVTQNNKAEYVQLVTELRMTRAIQPQINAFLQGFHMFIPPSLIQLFDEYELELLLSGMPEIDVSDWIKNTEYTSGYEREDPVIQWFWEVVEDITQEERVLLLQFVTGSSRVPHGGFANIMGGSGLQNFTIAAVPYTPNLLPTSSTCINMLKLPEYPSKEILKDRLLVALHCGSYGYTMA

From publication PMC10520629
